The values that follow come from US20100093602A1 (CASE WESTERN RESERVE UNIVERSITY, published 2010).

To fix the notation:
B1: human N-cadherin-Fc (R&D Systems) (Fc fusion, UniProt P19022 160-724, looked up)
chain: DWVIPPINLPENSRGPFPQELVRIRSDRDKNLSLRYSVTGPGADQPPTGIFIINPISGQLSVTKPLDREQIARFHLRAHAVDINGNQVENPIDIVINVIDMNDNRPEFLHQVWNGTVPEGSKPGTYVMTVTAIDADDPNALNGMLRYRIVSQAPSTPSPNMFTINNETGDIITVAAGLDREKVQQYTLIIQATDMEGNPTYGLSNTATAVITVTDVNDNPPEFTAMTFYGEVPENRVDIIVANLTVTDKDQPHTPAWNAVYRISGGDPTGRFAIQTDPNSNDGLVTVVKPIDFETNRMFVLTVAAENQVPLAKGIQHPPQSTATVSVTVIDVNENPYFAPNPKIIRQEEGLHAGTMLTTFTAQDPDRYMQQNIRYTKLSDPANWLKIDPVNGQITTIAVLDRESPNVKNNIYNATFLASDNGIPPMSGTGTLQIYLLDINDNAPQVLPQEAETCETPDPNSINITALDYDIDPNAGPFAFDLPLSPVTIKRNWTITRLNGDFAQLNLKIKFLEAGIYEVPIIITDSGNPPKSNISILRVKVCQCDSNGDCTDVDRIVGAGLGTGA
notes: also called N-cadherin substrate; purified N-cadherin substrate; not shown: Fc part of the bought fusion

The target of experiment [1] is T1, N-cadherin expressed on human glioblastoma LN-229 cells (human, UniProt P19022 160-906).
T1 construct: whole, on cells
T1 sequence (looked up): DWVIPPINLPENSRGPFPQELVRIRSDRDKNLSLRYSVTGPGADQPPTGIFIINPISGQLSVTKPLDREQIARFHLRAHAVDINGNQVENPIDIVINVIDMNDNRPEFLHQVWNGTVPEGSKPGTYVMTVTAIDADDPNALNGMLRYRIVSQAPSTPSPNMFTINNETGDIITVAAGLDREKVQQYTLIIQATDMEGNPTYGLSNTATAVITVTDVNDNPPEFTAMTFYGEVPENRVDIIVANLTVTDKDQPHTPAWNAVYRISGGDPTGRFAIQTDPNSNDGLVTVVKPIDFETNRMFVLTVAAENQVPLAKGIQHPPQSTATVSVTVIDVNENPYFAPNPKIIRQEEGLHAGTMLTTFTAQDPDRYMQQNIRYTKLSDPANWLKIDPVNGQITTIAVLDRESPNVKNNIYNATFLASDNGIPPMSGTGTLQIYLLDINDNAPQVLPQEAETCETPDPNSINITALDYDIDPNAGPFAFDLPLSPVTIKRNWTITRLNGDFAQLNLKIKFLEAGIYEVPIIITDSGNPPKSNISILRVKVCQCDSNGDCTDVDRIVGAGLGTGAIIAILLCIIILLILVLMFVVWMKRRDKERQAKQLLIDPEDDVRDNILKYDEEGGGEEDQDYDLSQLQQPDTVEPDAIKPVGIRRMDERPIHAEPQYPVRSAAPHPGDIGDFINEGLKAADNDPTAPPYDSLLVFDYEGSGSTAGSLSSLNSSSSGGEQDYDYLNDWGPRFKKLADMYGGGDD
In words: cell adhesion assay: LN-229 cells on spots of N-cadherin-Fc on nitrocellulose-coated dishes; this is the pair whose adhesion ADH-1 reduces. On the procedure:
Sterile 35 mm tissue culture dishes were coated with nitrocellulose in methanol and allowed to dry. Distinct spots, containing 50 ng of either purified Laminin (Sigma) or N-cadherin-Fc (R&D Systems), were made by spotting 10 μl of protein solution on the nitrocellulose-coated tissue culture dishes. Each dish contained two distinct spots of both Laminin and N-cadherin-Fc. After a 20-min incubation at room temperature, the protein solutions were aspirated. Remaining binding sites on the nitrocellulose were blocked with 2% BSA in PBS, and the dishes were rinsed with DMEM (Invitrogen).
4×10⁵ cells were added to each tissue culture dish in the presence of N-cadherin peptidomimetic small molecules, reconstituted in either DMSO or 0.3% cyclodextrin, and diluted in DMEM supplemented with 10% fetal bovine serum (HyClone). In the control experiments, either DMSO or cyclodextrin was added with LN-229 cells in the absence of the peptidomimetic small molecules. The cells were allowed to adhere to the protein substrate for 2 hours at 37° C., 5% CO₂. After incubation, the medium was removed and the tissue culture dishes were rinsed once with PBS to remove any unattached cells. Cells were fixed with 4% PFA, 0.01% glutaraldehyde in PEM buffer for 10 minutes at room temperature and rinsed once in PBS prior to imaging.

Experiment [2] has as its target B1. The experiment can be described thus: cell-based or functional assay.

For B1, in experiment [1], the binding result is recorded as “binds”.

With Ac-CHAVC-NH2 (also: cyclic peptide, cyclising bond not given here) [ADH-1 (short cyclic HAV peptide N-Ac-CHAVC-NH2)], the “IC50 for inhibition of RGC neurite outgrowth” value in experiment [2] came to 2330 µM.
